Values quoted from earlier work as cited in article PMC8448686.

How the values were obtained:
CD20 (Homo sapiens) = CD20 (Homo sapiens) (UniProt P11836); experiment: LigandTracer
HER2 (Homo sapiens) = HER2 (Homo sapiens) (UniProt P04626); experiment: LigandTracer

Chain of UniProt P11836 (P11836 whole entry): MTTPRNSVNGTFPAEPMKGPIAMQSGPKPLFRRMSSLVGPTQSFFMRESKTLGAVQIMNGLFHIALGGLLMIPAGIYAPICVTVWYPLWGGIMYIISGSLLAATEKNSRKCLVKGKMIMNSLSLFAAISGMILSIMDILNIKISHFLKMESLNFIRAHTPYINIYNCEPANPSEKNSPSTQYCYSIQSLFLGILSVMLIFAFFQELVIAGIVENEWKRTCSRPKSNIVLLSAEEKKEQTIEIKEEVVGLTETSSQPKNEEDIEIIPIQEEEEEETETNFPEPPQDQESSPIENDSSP

Kd (HER2 (Homo sapiens)) [nM] | Substance | Kd (CD20 (Homo sapiens)) [nM]
 | Rituximab | 0.93
0.13 | Pertuzumab | 
